This is an account of results in publication PMC6644000 (Cell, 2019).

This assay has as its target T1, REV1 C-terminal domain (CTD) (mouse, UniProt Q920Q2 1150-1249).
T1 sequence (looked up): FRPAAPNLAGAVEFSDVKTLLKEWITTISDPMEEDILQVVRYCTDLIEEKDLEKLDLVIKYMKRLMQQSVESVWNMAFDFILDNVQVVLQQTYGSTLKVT
The assay is described as follows: crystal structure.

B1: POL κ RIR (REV1-interacting region) peptide (domain or fragment, mouse, UniProt Q9QUG2 564-577, looked up)
chain: KSFFDKKRSERISN
In the case of B1, the binding result is recorded as “binds”.
